Laboratory results: patent publication US9523084B2, “Phosphodeoxyribosyl transferase mutant enzymes and uses thereof” (Centre National De La Recherche Scientifique, priority 2012, dated 2016)
Positions count from the first letter of the chain named. Names may count otherwise.

Legend:
Assay type in all cases: biochemical
[1] = target: T1, Lactobacillus leichmannii nucleoside deoxyribosyltransferase (NDT, SEQ ID NO:1) variant PDTT1, R13 G92 T93 S123 K157 (F13R/D92G/V93T/N123S/Y157K), SEQ ID NO:9 (Lactobacillus leichmannii, UniProt Q9R5V5, D92G/F13R/N123S/V93T/Y157K); assay: Kinetic parameters of PDT variants with deoxycytidine 5'-mono, -di and -triphosphate as donors and adenine as acceptor; conditions: adenine acceptor
T1 construct: homohexamer (108 kDa)
T1 sequence (Q9R5V5 1-157 F13R/D92G/V93T/N123S/Y157K): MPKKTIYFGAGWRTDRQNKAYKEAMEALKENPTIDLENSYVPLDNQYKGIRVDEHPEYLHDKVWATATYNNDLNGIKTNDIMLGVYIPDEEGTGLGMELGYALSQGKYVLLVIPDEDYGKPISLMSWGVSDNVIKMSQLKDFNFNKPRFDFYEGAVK
Experimental: (§1) The standard assay (“first protocol for enzyme assay”) for the different NDTs consisted of 5-15 μg of NDT in 50 mM MES buffer pH 6.0, dNxP (dNMP, or dNDP or dNTP) 3 mM and a base 1 mM in a total volume of 50 μL. Assays were incubated for 60 min at 37° C. The products of the reactions were analyzed each 7 min by Rapid resolution high performance liquid chromatography using a reverse-phase column (ZORBAX Eclipse XDB-C18 2.1*50 mm 1.8 μM) with a flow rate of 0.25 ml/min and a linear gradient of 1-12% CH3CN (2-25% CH3CN or 1-90% CH3CN) in 20 mM triethylammonium acetate, pH 7.5, buffer for 7 min. The low resolution mass spectra of the newly synthesized deoxyribonucleotides were obtained on an Agilent 1200 series LC/MS 6120 quadrupole system using an atmospheric electrospray ionization system.
(§2) This hypothesis was confirmed by monitoring the specific activity, in the presence of dCDP or dCTP as donor and adenine as acceptor (see table 2 above). The kinetic parameters were determined for the best variants with dCMP, dCDP and dCTP as substrates, at a concentration of A being fixed (see table 3 below).

[2] = target: T2, Lactobacillus leichmannii nucleoside deoxyribosyltransferase (NDT, SEQ ID NO:1) variant PDTT2, R13 Q91 G92 T93 S123 (F13R/E91Q/D92G/V93T/N123S), SEQ ID NO:10 (Lactobacillus leichmannii, UniProt Q9R5V5, D92G/E91Q/F13R/N123S/V93T); assay: as above; conditions: adenine acceptor
T2 construct: made in house; host or cells: E. coli BLi5 (pET24a NDT plasmid)
T2 sequence (Q9R5V5 2-157 F13R/E91Q/D92G/V93T/N123S): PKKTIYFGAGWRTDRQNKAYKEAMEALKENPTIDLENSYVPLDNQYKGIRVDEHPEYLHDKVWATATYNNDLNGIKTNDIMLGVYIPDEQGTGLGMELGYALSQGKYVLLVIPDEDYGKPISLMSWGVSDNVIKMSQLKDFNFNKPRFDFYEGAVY
Experimental: as §1, §2

[3] = substrate: Nc1ccn([C@H]2C[C@H](O)[C@@H](COP(=O)(O)O)O2)c(=O)n1; assay: as above; conditions: 37.0 °C; for Km: adenine as acceptor, fixed
Experimental: as §1, §2

[4] = substrate: Nc1ccn([C@H]2C[C@H](O)[C@@H](COP(=O)(O)OP(=O)(O)OP(=O)(O)O)O2)c(=O)n1; assay: as above; conditions: other: PDTT2; deoxyribose triphosphate transferase; 37.0 °C
Experimental: as §1, §2

[5] = substrate: Nc1ncnc2c1ncn2[C@H]1C[C@H](O)[C@@H](COP(=O)(O)OP(=O)(O)OP(=O)(O)O)O1; assay: Spectrophotometric assay coupled to xanthine oxidase, dATP + C ⇄ dCTP + A; conditions: other: PDTT2, 1 mM cytosine, 50 mM MES pH6.0, 37° C., pH 6.0
Experimental: Further, the cinetic parameters of these mutant enzymes were analysed, using a specific spectrophotometric assay. Briefly, the assay consists in measuring the formation of the final product (2,8 dihydroxyadenine) of the reaction:
Briefly, the assay was performed using the coupling of two enzymes: the variant (PDTT2, PDTT4, PDTT5, PDTT6, or PDTT7) to be tested and xanthine oxidase (obtained from Roche). The reaction mixture contained varying concentrations of dATP, 1 mM cytosine in a 50 mM MES buffer pH6.0 at 37° C. The reaction was initiated by adding 30 units of the purified variant to be tested and xanthine oxidase (Roche). The released adenine was then oxidized in 2,8-dihydroxyadenine which absorbs at 301 nm. The formation (i.e. concentration) of 2,8 dihydroxyadenine was measured by spectrophotometry.

Q: With `Nc1ccn([C@H]2C[C@H](O)[C@@H](COP(=O)(O)O)O2)c(=O)n1` [dCMP] as the molecule, how does the kcat ([1]; PDTT1, second line of the table) read?
A: The kcat was 0.08 s⁻¹.

Q: And the kcat ([1]; PDTT1, third line of the table)?
A: The kcat was 0.5 s⁻¹.

Q: What about the kcat ([2]; PDTT2, second line of the table) of the same molecule?
A: The kcat was 0.1 s⁻¹.

Q: What about the kcat ([2]; PDTT2, third line of the table) of the same molecule?
A: The kcat was 1.3 s⁻¹.

B1: Lactobacillus leichmannii nucleoside deoxyribosyltransferase (NDT, SEQ ID NO:1) variant PDTT2, R13 Q91 G92 T93 S123 (F13R/E91Q/D92G/V93T/N123S), SEQ ID NO:10 … (protein)
chain: T2 sequence (Q9R5V5 2-157 F13R/E91Q/D92G/V93T/N123S)
notes: made in house; host or cells: E. coli BLi5 (pET24a NDT plasmid)
Q: What does the source list for B1?
A: kcat ([3]; other: PDTT2, first line, adenine acceptor, molecular mass of 108 kDa): 0.9 s⁻¹; Km ([3]; other: PDTT2, first line): 6 mM; Km ([3]; other: PDTT2, second line of the table): 8.7 mM; Km ([3]; other: PDTT2, third line of the table): 2 mM; Km [4]: 2 mM; kcat/Km [4]: 668 M⁻¹ s⁻¹

B2: Lactobacillus leichmannii nucleoside deoxyribosyltransferase (NDT, SEQ ID NO:1) variant PDTT2, R13 Q91 G92 T93 S123 (F13R/E91Q/D92G/V93T/N123S), SEQ ID NO:10 … (protein)
chain: T1 sequence (Q9R5V5 1-157 F13R/D92G/V93T/N123S/Y157K) with E91Q, K157Y
notes: as for B1
Q: With B2 as the molecule, how does the Km [5] read?
A: Its Km is 6.1 mM.

Q: And the kcat [5]?
A: Its kcat is 12.6 s⁻¹.

Q: What about the kcat/Km [5] of the same molecule?
A: The kcat/Km was 2000 M⁻¹ s⁻¹.
